Experimental data as given in article doi:10.1101/2023.07.29.551094.

Molecular target: TslA lipase domain, purified (S. aureus)
Test: ITC

B1: TilA (SAOUHSC_00405) lacking its signal sequence, His tag removed (natural protein)
chain: CGNMKDEQKKEEQTNKTDSKEEQIKKSFAKTLDMYPIKNLEDLYDKEGYRDGEFKKGDKGTWTILTGFSKSNKPGVLDDEGMVLYLNRNTKKATGYYFVNKVYDDISKNHNEKKYRVELKNNKIVLLDNVEDKKLKQKIENFKFFSQYADFKDLKNYQDGNITTNENVPSYEAQYKMNNSDKNVKKLREIYPITTNNSPNLKLYIDGDIKGSSVGYKKIEYKFSKDKGQETTLRDYLNFGPSEGENVE
Kd: 0.0142 µM
dH: -85.8 kJ/mol
stoichiometry N: 0.88
